Consider 4 molecules from patent publication US20240343803A1 (SHANDONG SIMCERE BIOPHARMACEUTICAL, published 2024).

T1: Full-length human TIGIT on CHO-K1 cells (CHO-K1 human TIGIT) (human, UniProt Q495A1 22-244)
T1 construct: NCBI XP_024309156.1; the entry includes the signal peptide (limits not recoverable); The strain (high, medium, low) is named under assay; also called high expression strain 1D2; medium expression strain 2D10
T1 sequence: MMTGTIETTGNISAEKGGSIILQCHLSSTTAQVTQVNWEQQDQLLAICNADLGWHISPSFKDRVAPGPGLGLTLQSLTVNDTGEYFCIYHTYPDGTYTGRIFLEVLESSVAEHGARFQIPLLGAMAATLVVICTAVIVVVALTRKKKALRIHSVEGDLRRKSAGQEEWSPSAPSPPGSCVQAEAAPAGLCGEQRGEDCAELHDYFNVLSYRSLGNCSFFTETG

T2: Fusion protein of extracellular domain of human TIGIT and mouse IgG2a Fc fragment (human TIGIT ECD-mFc) (human)
T2 construct: The entry includes the signal peptide (limits not recoverable) and the mouse IgG2a Fc
T2 chain: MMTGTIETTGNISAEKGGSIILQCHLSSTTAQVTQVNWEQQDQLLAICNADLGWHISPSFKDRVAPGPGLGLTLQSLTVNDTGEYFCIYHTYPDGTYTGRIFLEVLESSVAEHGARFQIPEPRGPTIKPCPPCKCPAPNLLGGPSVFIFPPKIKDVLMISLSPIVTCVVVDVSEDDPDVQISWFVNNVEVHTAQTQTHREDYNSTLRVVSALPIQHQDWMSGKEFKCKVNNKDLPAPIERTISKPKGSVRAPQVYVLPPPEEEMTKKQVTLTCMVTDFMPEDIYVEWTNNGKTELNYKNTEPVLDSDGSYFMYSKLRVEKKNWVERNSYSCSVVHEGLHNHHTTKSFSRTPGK

T3: TIGIT on human PBMCs stimulated by SEA (human, UniProt Q495A1 22-244)
T3 construct: whole, on cells
T3 sequence (looked up): T1 sequence

B1: TIGIT-002-H4L3 (antibody, V domains shown)
VH: EVQLQESGPGLVKPSETLSLTCAVSGYSITSDSWNWIRQPPGKKLEYIGYISYSGNTYYNPSLKSRVTISRDTSKNQFSLKLSSVTAADTAVYYCARLDFSNYGGAVDYWGQGTTVTVSS
VL: DIVMTQSPDSLAVSLGERATINCKASQNVRTAVAWYQQKPGQSPKLMIYSASYRYTGVPDRFSGSGSGTDFTLTISSLQAEDVAVYYCQQYYTTPWTFGGGTKVEIK
notes: Humanized anti-TIGIT antibody
B2: TIGIT-006-H5L3 (antibody, V domains shown)
VH: B1 VH with I29M, S33Y, N56R, L98G, F100Y, V107M, D108Y, Y109D
VL: DIVMTQSPDSLAVSLGERATINCRASQGVSTTIAWYQQKPGQSPKLLIYSASYRYTGVPRFSGSGSGTDFTLTISSLQAEDVAVYYCQQYYSSPFTFGGGTKVEIK
notes: Humanized anti-TIGIT antibody
B3: TIGIT-005-H2L1d (antibody, V domains shown)
VH: EVQLVQSGAEVKKPGASVKVSCKASGYAFTNYLIEWVRQAPGQRLEWMGVINPGSGGTNYKEKFKGRVTITADKSSSTAYMELSSLRSEDTAVYYCARGEYFFFDYWGQGTTVTVSS
VL: B1 VL with N28H, R30S, T31N, Q38H, M47L, Y91H, T93N, W96H
notes: Humanized anti-TIGIT antibody with NG-site mutation in VL
B4: TIGIT-070-H1L1 (antibody, V domains shown)
VH: EVQLVQSGAEVKKPGASVKVSCKASGYTFTNYYMHWVRQAPGQRLEWMGRIDPDSGGSKYNEKFKSRVTITVDKSASTAYMELSSLRSEDTAVYYCAREGHYGFYSDYWGQGTTVTVSS
VL: DIQMTQSPSSLSASVGDRVTITCRVSENIYSYLAWYQQKPGKSPKLLIYNAKTLAEGVPSRFSGSGSGTDFTLTISSLQPEDFATYYCQHHYGNPLTFGPGTKVDIK
notes: Humanized anti-TIGIT antibody

Residue numbers refer to the chain shown, from its start.

In one assay the target is T4, Fusion protein of extracellular domain of cynomolgus monkey TIGIT and mouse IgG2a Fc fragment (cynomolgus … (cynomolgus monkey)).
T4 construct: The entry includes the signal peptide (limits not recoverable) and the mouse IgG2a Fc
T4 sequence (chain, as listed by the source limits assumed): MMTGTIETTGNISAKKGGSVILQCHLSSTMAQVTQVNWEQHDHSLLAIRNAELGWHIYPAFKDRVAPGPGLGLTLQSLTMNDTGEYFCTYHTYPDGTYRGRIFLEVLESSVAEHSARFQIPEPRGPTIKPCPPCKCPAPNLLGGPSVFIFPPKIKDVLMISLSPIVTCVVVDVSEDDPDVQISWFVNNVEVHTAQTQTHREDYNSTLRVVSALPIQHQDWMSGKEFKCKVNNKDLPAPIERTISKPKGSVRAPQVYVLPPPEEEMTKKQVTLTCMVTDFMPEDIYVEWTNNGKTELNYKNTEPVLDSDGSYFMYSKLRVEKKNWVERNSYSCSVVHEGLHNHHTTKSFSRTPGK
The assay can be described thus: ELISA, cynomolgus monkey TIGIT ECD-mFc. An outline of the steps: (§1)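 Antibodies diluted to 13 nM in 1% BSA, then 3-fold serial dilution for 12 concentrations, incubated with milk-blocked plates at 37° C for 1.5-2 h. Bound antibody detected with HRP-labelled secondary antibody (1:5000, 37° C, 1 h) and TMB, stopped with 1M HCl; OD450 nm read.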
On to B1, for which the response was half-maximal at 0.0189 nM (EC50).

On to B2, for which the concentration for a half-maximal effect (EC50) (usually the concentration at which the effect is half-maximal) amounted to 0.0132 nM.

B3: the EC50 worked out at 0.0403 nM.

The molecule B4 had a half-maximal effective concentration (EC50) of 0.0123 nM.

The target in a further assay is T5, Fusion protein of extracellular domain of human TIGIT and human IgG1 Fc fragment (human TIGIT ECD-hFc) (human).
T5 construct: The entry includes the signal peptide (limits not recoverable) and the human IgG1 Fc
T5 sequence (chain, as listed by the source limits assumed): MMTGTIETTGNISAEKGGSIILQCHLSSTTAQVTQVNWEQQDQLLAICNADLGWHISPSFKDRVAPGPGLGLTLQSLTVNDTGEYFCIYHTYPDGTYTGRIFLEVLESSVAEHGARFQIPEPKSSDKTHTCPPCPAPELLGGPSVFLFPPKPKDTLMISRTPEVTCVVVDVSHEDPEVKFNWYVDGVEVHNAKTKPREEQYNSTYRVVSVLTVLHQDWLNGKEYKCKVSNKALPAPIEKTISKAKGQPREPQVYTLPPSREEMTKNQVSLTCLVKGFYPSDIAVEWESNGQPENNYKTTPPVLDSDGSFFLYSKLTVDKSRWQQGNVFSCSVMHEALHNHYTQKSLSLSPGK
The assay can be described thus: blocking of TIGIT ECD-hFc binding to CHO-K1 CD155 cells. An outline of the steps: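 Cell-based ELISA on CHO-K1 CD155 cells, cultured overnight, fixed and blocked with 5% skim milk-PBS. Antibodies were premixed for 0.5 h with human TIGIT ECD-hFc (working concentration 30 ng/mL), then added and held at 37° C for 1.5-2 h. Bound TIGIT was detected with HRP secondary antibody (1:5000, 37° C, 1 h) and TMB, read as OD450 nm. IC50 came from the inhibition curves.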
In the case of B1, the IC50 – broadly, the concentration at which inhibition is half-maximal – was 0.354 nM.

B2 had an IC50 of 0.587 nM.

Consider B3, for which the half-inhibitory concentration (IC50) is 0.376 nM.

B4 showed an IC50 of 0.502 nM.

The next assay concerns the target T1, Full-length human TIGIT on CHO-K1 cells …. Nature of the assay: cell binding, CHO-K1 human TIGIT high expression strain. In outline:
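Binding was measured by flow cytometry after a 60-minute, 4° C incubation of the antibodies with 2×10⁵ CHO-K1 cells displaying full-length human or cynomolgus monkey TIGIT. Antibody titration: 12 points, threefold serial dilution from 80 nM, in 1% BSA-PBS.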
With B1, the response was half-maximal at 0.0249 nM (EC50).

On to B2, for which the EC50 is 0.022 nM.

As to B3, the 50% effective concentration (EC50) turned out to be 0.0439 nM.

In the case of B4, the EC50 was found to be 0.026 nM.

The next assay addresses T2, Fusion protein of extracellular domain …. Nature of the assay: ELISA, human TIGIT ECD-mFc. In outline:
as §1
(In an ELISA, binding on a coated surface is turned into a signal by an enzyme label.)
B1: it took 0.0138 nM to reach a half-maximal effect (EC50).

In the case of B2, the EC50 is 0.0092 nM.

B3 had an EC50 of 0.0291 nM.

The molecule B4 came in with an EC50 of 0.0149 nM.

Another assay concerns the target T3, TIGIT on human PBMCs stimulated by SEA. Nature of the assay: FACS; binding to SEA-stimulated human PBMC. How it is done: The fresh human PBMCs (AllCells, PB004-C) were adjusted to a density of 5×10⁵/mL, added with SEA (Toxin Technology, Inc., CAT: AT101) to 100 ng/ml, and cultured at 37° C. with 5% CO₂ for 3 days. The cells were collected 3 days later, washed once with PBS (Hyclone, CAT #SH30256), added with Fc Block (BD, 564220) and then incubated at 4° C. for 10 minutes. After washing twice with PBS, the PBMCs were resuspended to 2×10⁵/50 μL with 1% BSA-PBS. The humanized antibodies were diluted to 80 nM with 1% BSA-PBS (diluted by 3-fold serial dilution for 12 concentration points). The 50 μL cells were then mixed with 50 μL diluted antibodies, and then incubated at 4° C. for 60 minutes. […] After washing twice with PBS, the cell samples were resuspended with 1% BSA-PBS, 100 μL/well and then analyzed by flow cytometry (BD, Canto II).
In turn, B1 registered an EC50 of 0.0436 nM.

As to B2, the 50% effective concentration (EC50) stood at 0.0916 nM.

Turning to B3, the response was half-maximal at 0.0602 nM (EC50).

B4 had an EC50 of 0.121 nM.
